Experiments:
[1] = tested on: NC(=O)c1ccc[n+]([C@@H]2O[C@H](COP(=O)(O)OP(=O)(O)OC[C@H]3O[C@@H](n4cnc5c(N)ncnc54)[C@H](O)[C@@H]3O)[C@@H](O)[C@H]2O)c1; experiment: purified protein; settings: co-substrate vanillin, pH 9.5, varied: cofactor
COc1cc(C=O)ccc1O = experiment: purified protein; settings: co-substrate NAD+ (0.5 mM in standard assay), 30 °C, pH 9.5
[2] = target: vanillin dehydrogenase from Streptomyces sp. NL15-2K (recombinant) (Streptomyces sp. NL15-2K); experiment: SEC; gel filtration of purified recombinant VDH on Superdex 200 10/300 GL, calibrated with thyroglobulin, ferritin, aldolase, conalbumin and ovalbumin; native mass compared with the subunit mass by SDS-PAGE

For “VDH (vanillin dehydrogenase) from Streptomyces sp. NL15-2K (Streptomyces sp. NL15-2K; S2A)”, the Km [1] was 647 ± 40.0 µM, the kcat [1] was 23.45 ± 0.59 s^− 1 and the Km (COc1cc(C=O)ccc1O) was 8.47 ± 0.91 µM. The kcat (COc1cc(C=O)ccc1O) was 9.35 ± 0.77 s⁻¹ and the kcat/Km (COc1cc(C=O)ccc1O) was 1.11e+06 ± 100000 M⁻¹ s⁻¹.
With “vanillin dehydrogenase from Streptomyces sp. NL15-2K (recombinant) (enzyme)” the stoichiometry N [2] was 4.
